We go through 1 molecule from patent US20200181247A1.

Assay [1] has as its target A-beta42 Monomer (human). In words: SPR; purified antibody immobilized, A-beta preparation flowed over.
Assay [2] has as its target A-beta42 Oligomer (synthetic, prepared in F12 medium) (human). The description is as above.
For assay [3], the target named is commercially-prepared stable A-beta42 Oligomers (SynAging SAS) (human). In words: SPR; antibody covalently immobilized, stable A-beta42 oligomers (1 microM) injected.
In assay [4] the target is A-beta42 Monomer (human). Put plainly: SPR (MASS-1) direct binding; hybridoma culture supernatant over immobilized A-beta42 monomer.
Assay [5] concerns the target A-beta42 Oligomer (synthetic, prepared in F12 medium) (human). In words: SPR (MASS-1) direct binding; hybridoma culture supernatant over immobilized A-beta42 oligomer.
Assay [6] concerns the target T1, cyclo(CGHHQKG) (SEQ ID NO: 12) conjugated to BSA.
T1 sequence (peptide, cyclic peptide, cyclo(CGHHQKG); conjugated to BSA): CGHHQKG
In words: SPR (MASS-1) direct binding; hybridoma culture supernatant over immobilized BSA-conjugated peptide.

Assay [7] deals with T2, linear CGHHQKG (SEQ ID NO: 12) conjugated to BSA.
T2 sequence (peptide, linear (not cyclized); conjugated to BSA): CGHHQKG
The assay is described as above.

Sequence of A-beta42 Monomer (human) (peptide, as listed by the source): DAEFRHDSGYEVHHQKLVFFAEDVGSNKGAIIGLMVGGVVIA
Sequence of A-beta42 Oligomer (synthetic, prepared in F12 medium) (human) (peptide, as listed by the source): as above
Sequence of commercially-prepared stable A-beta42 Oligomers (SynAging SAS) (human) (peptide, as listed by the source): as above

B1: 301-3 (antibody, part only; not given: Light chain, two candidates, IgG3, V domains shown, part only)
VH: EVQLVESGGGLVKPGGSLKLSCAASGFTFSDYYMYWVRQTPEKRLEWVATISDGGSYTSYPDSVKGRFTISRDSAKNNLYLQMSSLKSEDTAMYYCARDYYGSNSYTSGFAYWGQGTLVTVSA
Regarding B1, the binding response (RU) with A-beta42 Monomer (human) [1] was -23.8 RU; in assay [2], 15.5 RU; in the assay with A-beta42 Monomer (human) [4], -1.8 RU; in assay [5], 56.8 RU; in assay [6], 469 RU; in assay [7] it was 60.6 RU. In assay [3], the binding response units (BRUs), average was 14.5 BRU.
